Reference: publication PMC11758712
pKd: −log10 of the molar value.

Assays:
[1] = biological target: monomeric ACE2 (a.a 19-611), C-terminally His-tagged (human) (UniProt Q9BYF1); test: mass photometry
[2] = biological target: Abdala (SARS-CoV-2 spike receptor-binding domain vaccine antigen produced in Pichia pastoris) (SARS-CoV-2 (Wuhan-Hu-1)) (UniProt P0DTC2); test: mass photometry

Chain of monomeric ACE2 (a.a 19-611), C-terminally His-tagged (human) (Q9BYF1 19-611): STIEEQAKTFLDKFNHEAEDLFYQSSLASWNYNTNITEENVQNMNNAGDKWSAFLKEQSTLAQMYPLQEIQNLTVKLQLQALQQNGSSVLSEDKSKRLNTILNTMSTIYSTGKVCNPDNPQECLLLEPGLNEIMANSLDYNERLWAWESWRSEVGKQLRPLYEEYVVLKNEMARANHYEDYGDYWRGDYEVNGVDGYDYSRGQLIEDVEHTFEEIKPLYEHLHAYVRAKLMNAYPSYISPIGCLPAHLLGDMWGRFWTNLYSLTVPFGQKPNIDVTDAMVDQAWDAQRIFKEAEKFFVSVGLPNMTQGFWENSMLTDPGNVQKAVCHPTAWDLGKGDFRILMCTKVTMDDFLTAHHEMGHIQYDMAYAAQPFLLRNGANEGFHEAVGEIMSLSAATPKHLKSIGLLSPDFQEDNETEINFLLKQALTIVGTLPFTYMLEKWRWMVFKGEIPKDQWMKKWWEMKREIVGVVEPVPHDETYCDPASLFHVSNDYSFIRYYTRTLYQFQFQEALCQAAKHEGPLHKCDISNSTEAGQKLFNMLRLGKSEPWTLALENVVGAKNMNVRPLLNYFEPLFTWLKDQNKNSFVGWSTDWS

Substance: Abdala (SARS-CoV-2 spike receptor-binding domain vaccine antigen produced in Pichia pastoris) (from UniProt P0DTC2 319-541) (domain or fragment)
- pKd [1]: 7.26
- percent dimeric species [2]: 5.6%
- stoichiometry N [2]: 2
